In paper PMC6451107, “Structural insights reveal the specific recognition of roX RNA by the dsRNA-binding domains of the RNA helicase MLE and its indispensable role in dosage compensation in Drosophila” one finds Kd and binding signal data, which are given here for four molecules.

Experiment in all cases: fluorescence polarization; FP: 80 nM 3'-FAM RNA stock mixed 1:1 with protein, buffer D (composition not in material), 15 min, 20 C; EMSA: 1200 nM RNA stock mixed 1:1 with protein, buffer
One data set has as its target MLE dsRBD1+2 H196A (Drosophila, UniProt P24785 1-264, H196A). The note with it: protein: recombinant; tags: SUMO tag removed by ULP1; label: 3'-FAM; hairpin, 13 nt loop (C135-C147).
A further data set has as its target MLE dsRBD1+2 K4E/S5A (Drosophila, UniProt P24785 1-264, K4E;S5A). The settings on record: protein: recombinant; tags: SUMO tag removed by ULP1; label: 3'-FAM; hairpin, 13 nt loop (C135-C147).
Another data set has as its target MLE dsRBD1+2 K171E/N175A (Drosophila, UniProt P24785 1-264, K171E;N175A). The settings on record: protein: recombinant; tags: SUMO tag removed by ULP1; label: 3'-FAM; hairpin, 13 nt loop (C135-C147).
The next data set has as its target MLE dsRBD1+2 K229A (Drosophila, UniProt P24785 1-264, K229A). The settings on record: protein: recombinant; tags: SUMO tag removed by ULP1; label: 3'-FAM; hairpin, 13 nt loop (C135-C147).
The next data set concerns the target MLE dsRBD1+2 E195A (Drosophila, UniProt P24785 1-264, E195A). The note with it: protein: recombinant; tags: SUMO tag removed by ULP1; label: 3'-FAM; hairpin, 13 nt loop (C135-C147).
A further data set has as its target MLE dsRBD1+2 K58A (Drosophila, UniProt P24785 1-264, K58A). The note with it: protein: recombinant; tags: SUMO tag removed by ULP1; label: 3'-FAM; hairpin, 13 nt loop (C135-C147).
The target of the next data set is MLE dsRBD1+2 N175A (Drosophila, UniProt P24785 1-264, N175A). The note with it: protein: recombinant; tags: SUMO tag removed by ULP1; label: 3'-FAM; hairpin, 13 nt loop (C135-C147).
In another data set the target is MLE dsRBD1+2 K4A/S5A (Drosophila, UniProt P24785 1-264, K4A;S5A). The settings on record: protein: recombinant; tags: SUMO tag removed by ULP1; label: 3'-FAM; hairpin, 13 nt loop (C135-C147).
Data set [1] deals with MLE dsRBD1+2 N52A/K53E/K54E/K58E (Drosophila, UniProt P24785 1-264, N52A;K53E;K54E;K58E). The settings on record: protein: recombinant; tags: SUMO tag removed by ULP1; label: 3'-FAM; hairpin, 13 nt loop (C135-C147).
The target in the next data set is MLE dsRBD1+2 S5A (Drosophila, UniProt P24785 1-264, S5A). The note with it: protein: recombinant; tags: SUMO tag removed by ULP1; label: 3'-FAM; hairpin, 13 nt loop (C135-C147).
The target in a further data set is MLE dsRBD1+2 K4A (Drosophila, UniProt P24785 1-264, K4A). The settings on record: protein: recombinant; tags: SUMO tag removed by ULP1; label: 3'-FAM; hairpin, 13 nt loop (C135-C147).
The target of the next data set is MLE dsRBD1+2 E172A (Drosophila, UniProt P24785 1-264, E172A). The settings on record: protein: recombinant; tags: SUMO tag removed by ULP1; label: 3'-FAM; hairpin, 13 nt loop (C135-C147).
For data set [2], the target named is MLE dsRBD1+2 N223A/K224A/K225A (Drosophila, UniProt P24785 1-264, N223A;K224A;K225A). The note with it: protein: recombinant; tags: SUMO tag removed by ULP1; label: 3'-FAM; hairpin, 13 nt loop (C135-C147).
Data set [3] has as its target MLE dsRBD1+2 N52A/K53A/K54A (Drosophila, UniProt P24785 1-264, N52A;K53A;K54A). The settings on record: protein: recombinant; tags: SUMO tag removed by ULP1; label: 3'-FAM; hairpin, 13 nt loop (C135-C147).
A further data set deals with MLE dsRBD1+2 N29A (Drosophila, UniProt P24785 1-264, N29A). The note with it: protein: recombinant; tags: SUMO tag removed by ULP1; label: 3'-FAM; hairpin, 13 nt loop (C135-C147).
A further data set has as its target MLE dsRBD1+2 K4E (Drosophila, UniProt P24785 1-264, K4E). The settings on record: protein: recombinant; tags: SUMO tag removed by ULP1; label: 3'-FAM; hairpin, 13 nt loop (C135-C147).
Another data set addresses MLE dsRBD1+2 K171A (Drosophila, UniProt P24785 1-264, K171A). The note with it: protein: recombinant; tags: SUMO tag removed by ULP1; label: 3'-FAM; hairpin, 13 nt loop (C135-C147).
Data set [4] has as its target MLE dsRBD1+2 N223A/K224E/K225E/K229E (Drosophila, UniProt P24785 1-264, N223A;K224E;K225E;K229E). The note with it: protein: recombinant; tags: SUMO tag removed by ULP1; label: 3'-FAM; hairpin, 13 nt loop (C135-C147).
The next data set has as its target MLE dsRBD1+2 H196E (Drosophila, UniProt P24785 1-264, H196E). The note with it: protein: recombinant; tags: SUMO tag removed by ULP1; label: 3'-FAM; hairpin, 13 nt loop (C135-C147).
Another data set addresses MLE dsRBD1+2 K171E (Drosophila, UniProt P24785 1-264, K171E). The settings on record: protein: recombinant; tags: SUMO tag removed by ULP1; label: 3'-FAM; hairpin, 13 nt loop (C135-C147).
A further data set has as its target MLE dsRBD1+2 WT (Drosophila, UniProt P24785 1-264). The settings on record: protein: recombinant, tags: SUMO tag (N-terminal, with Ni-NTA purification) removed by ULP1, label: 3'-FAM, hairpin.
The target of another data set is MLE dsRBD2 (Drosophila, UniProt P24785 152-264). The settings on record: protein: recombinant; tags: SUMO tag removed by ULP1; label: 3'-FAM; hairpin, 13 nt loop (C135-C147).
The target of another data set is MLE dsRBD1 (Drosophila, UniProt P24785 1-87). The note with it: protein: recombinant; tags: SUMO tag removed by ULP1; label: 3'-FAM; hairpin, 13 nt loop (C135-C147).

B1: R2H1 55mer (FAM) (structured_RNA)
RNA: GCUUUAGAGAUCGUUUCGAAUCACAUUGAUAAUCGUUCGAAACGUUCUCCGAAGC
With B1, the equilibrium dissociation constant (Kd) with MLE dsRBD1+2 H196A was found to be 3.02 ± 0.2 µM; in the data set with MLE dsRBD1+2 K4E/S5A, 8.05 ± 0.34 µM; with MLE dsRBD1+2 K171E/N175A it was 10.3 ± 1.14 µM; with MLE dsRBD1+2 K229A it was 0.88 ± 0.18 µM; with MLE dsRBD1+2 E195A it was 0.15 ± 0.03 µM; with MLE dsRBD1+2 K58A, 2.38 ± 0.13 µM. In addition, the Kd in the data set with MLE dsRBD1+2 N175A is 1.31 ± 0.26 µM; with MLE dsRBD1+2 K4A/S5A it was 4.49 ± 0.54 µM; in data set [1], 12.5 ± 1.51 µM; in the data set with MLE dsRBD1+2 S5A, 1.8 ± 0.24 µM; with MLE dsRBD1+2 K4A it was 4.18 ± 0.27 µM; with MLE dsRBD1+2 E172A it was 0.18 ± 0.04 µM. In addition, the equilibrium dissociation constant (Kd) is 18.9 ± 1.45 µM in [2]; 7.7 ± 0.36 µM in [3]; 0.43 ± 0.07 µM in the data set with MLE dsRBD1+2 N29A; 6.55 ± 0.56 µM in the data set with MLE dsRBD1+2 K4E; 4.58 ± 0.68 µM with MLE dsRBD1+2 K171A; 60.1 ± 6.55 µM in data set [4]. In addition, the Kd with MLE dsRBD1+2 H196E amounted to 7.24 ± 0.65 µM; in the data set with MLE dsRBD1+2 K171E it was 8.21 ± 0.26 µM; in the data set with MLE dsRBD1+2 WT (13 nt loop (C135-C147)), 0.2 ± 0.03 µM. Also, the binding signal with MLE dsRBD2 was about 4.5 fold weaker than dsRBD1+2; in the data set with MLE dsRBD1, about 44 fold weaker than dsRBD1+2.

B2: R2H1 U118C/A119G (structured_RNA)
RNA: GCUUCGGAGAUCGUUUCGAAUCACAUUGAUAAUCGUUCGAAACGUUCUCCGAAGC
Turning to B2, the Kd with MLE dsRBD1+2 WT amounted to 0.42 ± 0.06 µM.

B3: R2H1 U124A (structured_RNA)
RNA: GCUUUAGAGAACGUUUCGAAUCACAUUGAUAAUCGUUCGAAACGUUCUCCGAAGC
On to B3, for which the Kd in the data set with MLE dsRBD1+2 WT worked out at 1.03 ± 0.12 µM.

B4: R2H1 U134C/C135G (structured_RNA)
RNA: GCUUUAGAGAUCGUUUCGAACGACAUUGAUAAUCGUUCGAAACGUUCUCCGAAGC
Consider B4, for which the Kd with MLE dsRBD1+2 WT worked out at 0.43 ± 0.05 µM.

The term Kd denotes the concentration at which binding is half-saturated.
